Assay results published in PMC2936243 (Journal of neurochemistry, 2010).

Molecular target: native rat α7 nicotinic acetylcholine receptor (hippocampus) (rat (endogenous in hippocampus)) (UniProt Q05941)
Assay: radioligand binding

In the case of “Alexa Fluor 546-ArIB[V11L;V16A] (peptide)”, the IC50 is reported as 7.9 nM and the Ki is reported as 1.8 nM.
